The source of these data is patent US20250011363A1, “OPTIMIZED SHORTENED PEPTIDE THAT BINDS TO ACETYLCHOLINE RECEPTOR, AND USE THEREOF” (SKINMED CO., LTD., priority 2021, published 2025).

This experiment has as its target acetylcholine receptor (Homo sapiens, UniProt P02708). The experiment is described as follows: SPR binding affinity (RU) of optimized 5mer/6mer/7mer peptides, Examples 6-7. The conditions noted are these: SPR, peptides at 10 μM; 6mer-2 Bottom sequence. An outline of the steps: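 Single-concentration screen: 10 μM peptide, SPR detection, binding expressed as RU.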

Chain of acetylcholine receptor (P02708 21-457): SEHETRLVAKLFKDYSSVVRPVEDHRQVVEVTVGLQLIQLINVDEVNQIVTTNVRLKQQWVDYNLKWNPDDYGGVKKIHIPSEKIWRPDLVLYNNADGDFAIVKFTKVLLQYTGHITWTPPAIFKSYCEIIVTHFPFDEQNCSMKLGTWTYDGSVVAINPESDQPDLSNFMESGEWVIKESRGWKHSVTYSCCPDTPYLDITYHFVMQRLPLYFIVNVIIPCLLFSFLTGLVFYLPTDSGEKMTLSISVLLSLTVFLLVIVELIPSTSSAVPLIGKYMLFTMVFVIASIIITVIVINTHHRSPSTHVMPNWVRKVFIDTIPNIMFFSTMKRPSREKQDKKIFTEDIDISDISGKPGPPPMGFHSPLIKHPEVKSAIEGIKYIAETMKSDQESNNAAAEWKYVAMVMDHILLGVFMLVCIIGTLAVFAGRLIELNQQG

For the substance 6mer-2-1052 (KAPARK), the Binding affinity is 23 Ru.

6mer-2-1053 (KEMGKK): the Binding affinity amounted to 34 Ru.

In the case of 6mer-2-1054 (KKNKKR), the Binding affinity is recorded as 43 Ru.

Regarding 6mer-2-1055 (KPDFKR), the Binding affinity is on record as 30 Ru.

With 6mer-2-1056 (RNDERK), the Binding affinity is recorded as 22 Ru.

On to 6mer-2-1057 (RKKKKK), for which the Binding affinity was determined as 25 Ru.

For the substance 6mer-2-1058 (RMPWKK), the Binding affinity worked out at 24 Ru.

As for 6mer-2-1059 (RFADRR), the Binding affinity was 35 Ru.

For 6mer-2-1060 (KTNERK), the Binding affinity is recorded as 35 Ru.

Consider 6mer-2-1061 (KPPIKK), for which the Binding affinity amounted to 38 Ru.

Consider 6mer-2-1062 (KYNIRK), for which the Binding affinity is listed as 35 Ru.

For 6mer-2-1063 (RFNVRK), the Binding affinity was determined as 24 Ru.

6mer-2-1064 (RCMKRR): the Binding affinity is recorded as 39 Ru.

As to 6mer-2-1065 (RIANRK), the Binding affinity amounted to 27 Ru.

In the case of 6mer-2-1066 (KPEHKR), the Binding affinity was 29 Ru.

On to 6mer-2-1067 (RDEIRK), for which the Binding affinity amounted to 29 Ru.

Regarding 6mer-2-1068 (RIHVKK), the Binding affinity amounted to 26 Ru.

As for 6mer-2-1069 (KHDMKK), the Binding affinity was found to be 36 Ru.

6mer-2-1070 (RPHVRR): the Binding affinity is listed as 31 Ru.

Turning to 6mer-2-1071 (RTTWRK), the Binding affinity is listed as 25 Ru.

In the case of 6mer-2-1072 (KPHWKR), the Binding affinity came to 29 Ru.

Consider 6mer-2-1073 (KYSWRK), for which the Binding affinity was found to be 24 Ru.

As for 6mer-2-1074 (RPMGRK), the Binding affinity amounted to 33 Ru.

6mer-2-1075 (RHMERK): the Binding affinity stood at 31 Ru.

For 6mer-2-1076 (RYCIRR), the Binding affinity turned out to be 34 Ru.

Consider 6mer-2-1077 (KMTIKK), for which the Binding affinity was found to be 34 Ru.

On to 6mer-2-1078 (KDTFRR), for which the Binding affinity was found to be 40 Ru.

As for 6mer-2-1079 (KCNEKK), the Binding affinity is recorded as 40 Ru.

As for 6mer-2-1080 (RKHKKK), the Binding affinity worked out at 23 Ru.

For 6mer-2-1081 (KYKMRR), the Binding affinity stood at 32 Ru.

6mer-2-1082 (KYTERR): the Binding affinity amounted to 31 Ru.

Regarding 6mer-2-1083 (KTKGKR), the Binding affinity was 39 Ru.

With 6mer-2-1084 (REKPRK), the Binding affinity is given as 29 Ru.

For 6mer-2-1085 (RPEIRK), the Binding affinity is recorded as 42 Ru.

Turning to 6mer-2-1086 (KNDWRK), the Binding affinity is 21 Ru.

6mer-2-1087 (KEEMRR): the Binding affinity turned out to be 21 Ru.

On to 6mer-2-1088 (RPCEKK), for which the Binding affinity was found to be 39 Ru.

Turning to 6mer-2-1089 (RKTDRR), the Binding affinity was found to be 43 Ru.

Consider 6mer-2-1090 (KEMHKK), for which the Binding affinity is 33 Ru.

Regarding 6mer-2-1091 (RFDNKR), the Binding affinity came to 31 Ru.

On to 6mer-2-1092 (RAKFRR), for which the Binding affinity worked out at 21 Ru.

Regarding 6mer-2-1093 (KTTDKK), the Binding affinity is on record as 43 Ru.

In the case of 6mer-2-1094 (KAWERK), the Binding affinity was 43 Ru.

Turning to 6mer-2-1095 (KYSMRR), the Binding affinity was found to be 39 Ru.

Take 6mer-2-1096 (RANVKR): the Binding affinity turned out to be 39 Ru.

In the case of 6mer-2-1097 (RFWEKK), the Binding affinity is 23 Ru.

For 6mer-2-1098 (KHPKRR), the Binding affinity amounted to 28 Ru.

6mer-2-1099 (REDWRR): the Binding affinity is given as 21 Ru.

On to 6mer-2-1100 (RTAPKK), for which the Binding affinity is recorded as 24 Ru.

As for 6mer-2-1101 (RTKMRR), the Binding affinity came out at 38 Ru.

As to 6mer-2-1102 (KHKGKR), the Binding affinity is listed as 32 Ru.

Turning to 6mer-2-1103 (RDAWRK), the Binding affinity is reported as 42 Ru.

As to 6mer-2-1104 (RYTKKR), the Binding affinity is 38 Ru.

As for 6mer-2-1105 (RNNAKK), the Binding affinity came to 28 Ru.

In the case of 6mer-2-1106 (KDKVKR), the Binding affinity is reported as 28 Ru.

For the substance 6mer-2-1107 (RAHERK), the Binding affinity was 29 Ru.

Turning to 6mer-2-1108 (KKKVRR), the Binding affinity is given as 36 Ru.

With 6mer-2-1109 (KEDMRK), the Binding affinity was 26 Ru.

Regarding 6mer-2-1110 (RMTKKK), the Binding affinity is recorded as 37 Ru.

Take 6mer-2-1111 (REDEKK): the Binding affinity amounted to 23 Ru.

As to 6mer-2-1112 (RASWRK), the Binding affinity came to 26 Ru.

On to 6mer-2-1113 (KPNFRK), for which the Binding affinity is on record as 43 Ru.

6mer-2-1114 (RKKFRK): the Binding affinity is given as 34 Ru.

For 6mer-2-1115 (KYSPRK), the Binding affinity came to 39 Ru.

6mer-2-1116 (KMEVKK): the Binding affinity stood at 31 Ru.

On to 6mer-2-1117 (RMHVKR), for which the Binding affinity is 21 Ru.

On to 6mer-2-1118 (RFDGRR), for which the Binding affinity was 42 Ru.

As for 6mer-2-1119 (KCTVRK), the Binding affinity was found to be 39 Ru.

Consider 6mer-2-1120 (RDMMKK), for which the Binding affinity is listed as 28 Ru.

For 6mer-2-1121 (KPSKRR), the Binding affinity came to 21 Ru.

Turning to 6mer-2-1122 (RCNFKK), the Binding affinity was 22 Ru.

6mer-2-1123 (RITARR): the Binding affinity stood at 36 Ru.

Turning to 6mer-2-1124 (RKTWRK), the Binding affinity is on record as 39 Ru.

Turning to 6mer-2-1125 (RDAFKK), the Binding affinity is recorded as 30 Ru.

Take 6mer-2-1126 (RHEVRR): the Binding affinity stood at 23 Ru.

Turning to 6mer-2-1127 (KAAEKK), the Binding affinity stood at 42 Ru.

Regarding 6mer-2-1128 (KNCMRK), the Binding affinity was found to be 36 Ru.

6mer-2-1129 (RITGKR): the Binding affinity turned out to be 42 Ru.

As for 6mer-2-1130 (RHSFRK), the Binding affinity is on record as 29 Ru.

6mer-2-1131 (RTNAKR): the Binding affinity was 26 Ru.

6mer-2-1132 (RPWERR): the Binding affinity is 32 Ru.

For 6mer-2-1133 (KMKMKK), the Binding affinity is reported as 22 Ru.

For the substance 6mer-2-1134 (KYENRK), the Binding affinity was found to be 30 Ru.

Consider 6mer-2-1135 (RANWKR), for which the Binding affinity stood at 29 Ru.

For the substance 6mer-2-1136 (KMKKKR), the Binding affinity is reported as 36 Ru.

For the substance 6mer-2-1137 (RTDFKR), the Binding affinity turned out to be 22 Ru.

On to 6mer-2-1138 (KAHFKK), for which the Binding affinity is reported as 42 Ru.

As for 6mer-2-1139 (KAKAKK), the Binding affinity was 39 Ru.

Consider 6mer-2-1140 (KMNKKR), for which the Binding affinity was 29 Ru.

For 6mer-2-1141 (KCTGKR), the Binding affinity is on record as 32 Ru.

For 6mer-2-1142 (KKAMKR), the Binding affinity stood at 30 Ru.

Consider 6mer-2-1143 (KACIKK), for which the Binding affinity was found to be 42 Ru.

In the case of 6mer-2-1144 (RFEDRK), the Binding affinity turned out to be 39 Ru.

In the case of 6mer-2-1145 (RIKNRR), the Binding affinity was determined as 23 Ru.

As for 6mer-2-1146 (REWGRK), the Binding affinity is 32 Ru.

Consider 6mer-2-1147 (KFMKKK), for which the Binding affinity worked out at 35 Ru.

On to 6mer-2-1148 (KEKGKR), for which the Binding affinity stood at 34 Ru.

Regarding 6mer-2-1149 (KIDFRR), the Binding affinity was 21 Ru.

As for 6mer-2-1150 (KTDVKK), the Binding affinity is given as 42 Ru.

6mer-2-1151 (RYPVRK): the Binding affinity was 43 Ru.

For 6mer-2-1152 (RNWAKK), the Binding affinity was 37 Ru.

As for 6mer-2-1153 (KHKPKR), the Binding affinity is 27 Ru.

As to 6mer-2-1154 (RYEARR), the Binding affinity is listed as 30 Ru.

Take 6mer-2-1155 (RNTNRK): the Binding affinity stood at 25 Ru.

In the case of 6mer-2-1156 (KMNARR), the Binding affinity was found to be 35 Ru.

On to 6mer-2-1157 (RNTDRK), for which the Binding affinity amounted to 37 Ru.

On to 6mer-2-1158 (RDNIRK), for which the Binding affinity amounted to 37 Ru.

With 6mer-2-1159 (KDMGKR), the Binding affinity is listed as 40 Ru.

For the substance 6mer-2-1160 (RITVKK), the Binding affinity amounted to 23 Ru.

As to 6mer-2-1161 (RHSFKK), the Binding affinity is 27 Ru.

As to 6mer-2-1162 (KMSERR), the Binding affinity worked out at 34 Ru.

Turning to 6mer-2-1163 (KCHFKK), the Binding affinity turned out to be 37 Ru.

On to 6mer-2-1164 (RYNHKR), for which the Binding affinity was determined as 33 Ru.

With 6mer-2-1165 (RIKAKK), the Binding affinity was 30 Ru.

Turning to 6mer-2-1166 (KCSIKK), the Binding affinity is listed as 26 Ru.

In the case of 6mer-2-1167 (RCAPKR), the Binding affinity stood at 27 Ru.

As for 6mer-2-1168 (KMKPKK), the Binding affinity was 41 Ru.

On to 6mer-2-1169 (KICERK), for which the Binding affinity came out at 21 Ru.

Turning to 6mer-2-1170 (KFTIRR), the Binding affinity is listed as 25 Ru.

For 6mer-2-1171 (KMPARR), the Binding affinity was found to be 40 Ru.

Regarding 6mer-2-1172 (KNCERR), the Binding affinity was determined as 36 Ru.

As to 6mer-2-1173 (KCCNKK), the Binding affinity is recorded as 38 Ru.

For the substance 6mer-2-1174 (RCEPRK), the Binding affinity is on record as 21 Ru.

On to 6mer-2-1175 (RYSKRR), for which the Binding affinity is on record as 34 Ru.

With 6mer-2-1176 (RYTEKK), the Binding affinity is recorded as 43 Ru.

As for 6mer-2-1177 (RASEKR), the Binding affinity is 41 Ru.

For 6mer-2-1178 (KTTVRK), the Binding affinity is 30 Ru.

For the substance 6mer-2-1179 (KACVKK), the Binding affinity turned out to be 34 Ru.

In the case of 6mer-2-1180 (RAANRR), the Binding affinity is given as 34 Ru.

6mer-2-1181 (KACWKR): the Binding affinity was 32 Ru.

For 6mer-2-1182 (RHNDKR), the Binding affinity is on record as 30 Ru.
